The results in this text go back to PMC3553676.

The target of data set [1] is T1, Ku (Mycobacterium smegmatis, UniProt A0R3S7 1-318).
T1 sequence: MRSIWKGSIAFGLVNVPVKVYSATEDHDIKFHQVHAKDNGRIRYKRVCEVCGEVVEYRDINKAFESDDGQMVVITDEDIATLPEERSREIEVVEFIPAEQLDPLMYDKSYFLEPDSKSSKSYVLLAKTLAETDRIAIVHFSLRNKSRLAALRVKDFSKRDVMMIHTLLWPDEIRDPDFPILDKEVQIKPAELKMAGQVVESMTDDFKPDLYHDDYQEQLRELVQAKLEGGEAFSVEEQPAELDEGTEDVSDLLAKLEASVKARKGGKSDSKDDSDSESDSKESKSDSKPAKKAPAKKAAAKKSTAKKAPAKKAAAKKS
The data set is described as follows: EMSA.

Data set [2] deals with T1, Ku. Description: EMSA. The source holds these as a separate data set. In general terms: Mobility shift assays separate free from complexed probe on a gel.

B1: 37 bp DNA (dsDNA)
DNA 1: CCTAGGCTACACCTACTCTTTGTAAGAATTAAGCTTC
DNA 2: GAAGCTTAATTCTTACAAAGAGTAGGTGTAGCCTAGG
For orientation: Kd means the free concentration of one partner at which half of the binding sites on the other are occupied at equilibrium, for simple one-to-one binding. In the data set with Ku [1], B1 came in with a Kd of 8.6 ± 0.5 nM.

B2: 21/34 nt hairpin substrate (structured_DNA)
DNA 1: GTTTTTAGTTTATTGGGCGCG
DNA 2: CGCGCCCAGCTTTCCCAGCTAATAAACTAAAAAC
As for B2, the binding result with Ku [2] was “binds”.
